Tests used:
[1] = molecular target: T1, Human red blood cell proteasomes (Homo sapiens, UniProt P28072+P28074+Q99436); experiment: Activation of fluorogenic peptide hydrolysis by the proteasome in the presence of REG variants; type: biochemical
T1 construct: Human red blood cell proteasomes; from tissue; host or cells: human red blood cells
Experimental: Human red blood cell proteasomes (170 ng) were mixed with increasing amounts of purified REG variants. The reactions were started by adding 50 μl of 200 μMscu-LLVY-MCA, Boc-LRR-MCA, or Boc-LLE-βNA in 10 mM Tris, pH 7.5. After a 10 min incubation, the reaction was quenched with 200μl of cold 100% ethanol, and the released MCA or βNA ws measured fluometrically. Each data point represents the mean of three measurements from a single experiment. […] REGα (▪), REGγ(□), REGγ(K188E) or REGγ(K188D) (●), REGγ(K188H) (∘), REGγ(K188Q) or REGγ(K188N) (Δ), REGγ(K188A) (♦). The data for REGγ(K188E) and REGγ(K188D) and for REGγ(K188Q) and REGγ(K188N) were combined since their activities were indistinguishable.
Because each positive variant identified in the previous example included a mutation at Lys188, site-directed mutagenesis was used to generate a series of amino acid substitutions at this residue. Twelve mutants were constructed in which Lys188 of REGγ was changed to Ala, Arg, Asn, Asp, Cys, Gln, Glu, His, Ile, Phe, Pro, or Ser. Wild-type REGγ and the Lys 188 variants were expressed in E. coli, purified, and the activation specificity of each protein was measured using the diagnostic peptides LLVY (SEQ ID NO:1)-MCA, LRR-MCA, and LLE-βNA. Except for the K188R variant, all Lys 188 mutants stimulated the hydrolysis of LRR-MCA by the proteasome to the same extent or slightly better than wild-type REGγ. Substitution of negatively-charged Glu or Asp for the positively-charged Lys188 produced mutants with activation properties almost identical to REGα.
To determine the degree to which the activation specificity of REGγ(K188E/D) variants matches that of REGα, proteasomal cleavage of a series of fluorogenic peptides was measured in the presence of each activator.

[2] = Heptamer stability on rechromatography (Superdex 200 size exclusion column); type: physicochemical
Text: To examine the effect of Lys188 substitution on REGγ heptamer stability, the wildtype and Lys 188 variant heptamers were rechromatographed on the Superdex 200 (26/60) size exclusion column used for purification. […] Replacement of Lys 188 by Pro or Phe severely affected the stability of REGγ heptamer.

[3] = molecular target: T2, proteasome (Homo sapiens, UniProt P28072+P28074+Q99436); experiment: REGα(N146Y)/REGβ(N135Y) competition assay for relative proteasome affinity; type: binding; conditions: in terms of REGα(N146Y)/REGβ(N135Y) competition; wild-type REGγ 100
Text: As a measure of the relative affinities of REGγ and the REGγLys188 mutants for the proteasome, a competition assay was used. See Li et al. (2000), The Proteasome Activator 11S REG or PA28: Chimeras Implicate Carboxyl-Terminal Sequences in Oligomerization and Proteasome Binding But Not in the Activation of Specific Proteasome Catalytic Subunits. J. Mol. Biol. 299:641-54. All REGγLys188 mutants were relatively resistant to REGα(N146Y)/REGβ(N135Y) competition with apparent proteasome affinities varying from 40% to 90% that of wild-type REGγ.

[4] = molecular target: proteasome β subunits (T, CT/PGPH) (Homo sapiens, UniProt P28072+P28074+Q99436); experiment: Affinity labeling of proteasome β subunits with 125I-YL3-VS in the presence of REGs; type: biochemical; conditions: mean±S.D.
Text: To obtain estimates of substrate access to the proteasome's central chamber in the presence of REGγ and REGγ(K188E), the active site-directed probe, ^125I-YL3-VS, which covalently modifies all three active β-subunits in an activity dependent manner, was used. […] The phosphoimages show increased labeling of CT/PGPH and T subunits in the presence of REGγ and REGγ(K188E). The data further reveal that REGγ increased the rate of T-subunit labeling 4.7±2.6 (mean±S.D.) fold and the rate of CT/PGPH labeling 4.4±1.7 (mean±S.D.) fold over that seen with proteasome alone. Stimulation by the mutant REGγ(K188E) was greater, being 10.8±4.9 (mean±S.D.) fold for the T-subunit and 11.9±4.8 (mean±S.D.) fold for the CT/PGPH subunit. […] The finding that REGγ increased labeling of the CT and PGPH subunits was unexpected as the wild type activator suppresses hydrolysis of the CT substrate sLLVY (SEQ ID NO:1)-MCA.

[5] = molecular target: T3, proteasomes (Homo sapiens, UniProt P28072+P28074+Q99436); experiment: Proteasomal degradation of fluorescein-labeled polyQ peptides (molecular exclusion chromatography); type: biochemical; conditions: proteasome + activator, 5 hr incubation
Experimental: The following peptides were synthesized using routine peptide synthesis:
Each peptide was incubated for 5 hr with proteasomes alone, proteasomes+REGγ, proteasome+REGγ(K188E) or proteasomes+REGα/β. Degradation was assayed by molecular exclusion chromatography using fluorescein as a signal (see FIG. 2). The degradation products were identified by HPLC-MS (FIG. 3). […] By contrast, in the presence of REGγ(K188E) the various polyQ peptides were degraded 5 to 10-fold faster.

[6] = molecular target: T2, proteasome; experiment: Proteasomal hydrolysis of natural peptides P21 and BBC1 (HPLC); type: biochemical; conditions: 21-residue peptide P21; result in words
Experimental: Proteasomal hydrolysis of a 21 -residue peptide (P21) and a 49-residue peptide (BBC1) were prepared as described by Zhang et al. (1998), Proteasome Activation by REG Molecules Lacking Homolog-specific Inserts, J. Biol. Chem. 273:9501-09. Digestion products were applied to a C18 HPLC column and separated with a gradient of 0-45% acetonitrile containing 0.1% trifluoroacetic acid. To identify the products derived from P21, fractions were collected manually, concentrated, and subjected to mass spectrometry.

[7] = molecular target: T3, proteasomes; experiment: Proteasomal degradation of the fluorescein-tagged C31 peptide of APP; type: biochemical; conditions: result in words
Experimental: A 31-residue C-terminal peptide (C31) of APP, the transmembrane protein that gives rise to amyloid plaque forming Aβ peptides characteristic of Alzheimer's disease, was synthesized using routine peptide synthesis. A fluorescein tag was added to the peptide. C31 peptide is cytotoxic. See Lu et al. (2000), a Second Cytotoxic Proteolytic Peptide Derived from Amyloid Beta-Protein Precursor, Nat. Med. 6:397-404.
The C31 was incubated with proteasomes alone, proteasomes+REGγ, proteasome+REGγ(K188E) or proteasomes+REGα/β, and degradation was assayed as described in Example 8.

[8] = molecular target: T1, Human red blood cell proteasomes; experiment: Activation of fluorogenic peptide hydrolysis by the proteasome in the presence of REG variants; type: biochemical; remark: listed apart in the source

**Q.** For “γK188E: mutant REGγ in which Lys188 was changed to Glu”, which “Activation properties compared with REGα” value ([1]; small fluorogenic peptides, result in words) is on record?
**A.** The value was “virtually identical to REGα”.

**Q.** What about the “Stimulation of cleavage (x-fold) LLE” value ([1]; substrate LLE-βNA (PGPH site)) of the same substance?
**A.** Its value is 9 x-fold.

**Q.** What about the “Stimulation of cleavage (x-fold) LLVY” value ([1]; substrate LLVY-MCA (chymotrypsin-like site)) of the same substance?
**A.** Its value is 14 x-fold.

**Q.** What about the “Stimulation of cleavage (x-fold) LRR” value ([1]; substrate LRR-MCA (trypsin-like site)) of the same substance?
**A.** Its value is 15 x-fold.

**Q.** What about the “Heptamers dissociated during the second gel filtration” value ([2]; Superdex 200) of the same substance?
**A.** Its value is “More than half”.

**Q.** And the Percent heptamer ([2]; after second gel filtration)?
**A.** Its Percent heptamer is 50%.

**Q.** And the “Relative affinity for proteasome” value [3]?
**A.** The value was 90.

**Q.** And the “Increase in rate of CT/PGPH labeling over proteasome alone” value [4]?
**A.** Its value is 11.9±4.8 fold.

**Q.** What about the “Increase in rate of T-subunit labeling over proteasome alone” value [4] of the same substance?
**A.** Its value is 10.8±4.9 fold.

**Q.** What about the “% Degraded, substrate F1-EPQPQ” value [5] of the same substance?
**A.** Its value is 80%.

**Q.** What about the “% Degraded, substrate F1-KSQPQ” value [5] of the same substance?
**A.** Its value is 80%.

**Q.** And the “% Degraded, substrate F1-QHQ” value [5]?
**A.** Its value is 50%.

**Q.** What about the “% Degraded, substrate F1-QPQ” value [5] of the same substance?
**A.** Its value is 50%.

**Q.** And the “% Degraded, substrate F1-QQQ” value [5]?
**A.** Its value is over 95%.

**Q.** And the “Hydrolysis of P21 by the proteasome” value [6]?
**A.** The value was “markedly increased”.

**Q.** What about the “Degradation of C31 peptide by proteasomes” value [7] of the same substance?
**A.** Its value is “extensively degraded”.

**Q.** What about the “Cleavage of peptides diagnostic for the CT-like or PGPH active sites” value ([8]; result in words) of the same substance?
**A.** Its value is “substantially more than REGγ”.

**Q.** And the “Stimulation of cleavage (x-fold) AAF-MCA” value ([8]; substrate AAF-MCA)?
**A.** Its value is 4 x-fold.

**Q.** What about the “Stimulation of cleavage (x-fold) DEVD-MCA” value ([8]; substrate DEVD(SEQ ID NO: 8)-MCA) of the same substance?
**A.** Its value is 8 x-fold.

**Q.** And the “Stimulation of cleavage (x-fold) FSR-MCA” value ([8]; substrate FSR-MCA)?
**A.** Its value is 7 x-fold.

**Q.** And the “Stimulation of cleavage (x-fold) IEGR-MCA” value ([8]; substrate IEGR(SEQ ID NO: 5)-MCA)?
**A.** Its value is 2 x-fold.

**Q.** And the “Stimulation of cleavage (x-fold) IETD-MCA” value ([8]; substrate IETD(SEQ ID NO: 6)-MCA)?
**A.** The value was 21 x-fold.

**Q.** And the “Stimulation of cleavage (x-fold) LGHD-MCA” value ([8]; substrate LGHD(SEQ ID NO: 7)-MCA)?
**A.** Its value is 10 x-fold.

**Q.** What about the “Stimulation of cleavage (x-fold) LY-MCA” value ([8]; substrate LY-MCA) of the same substance?
**A.** Its value is 3 x-fold.

**Q.** And the “Stimulation of cleavage (x-fold) VLK-MCA” value ([8]; substrate VLK-MCA)?
**A.** The value was 6 x-fold.

**Q.** What about the “Stimulation of cleavage (x-fold) YVAD-MCA” value ([8]; substrate YVAD(SEQ ID NO: 9)-MCA) of the same substance?
**A.** The value was 7 x-fold.
